Experimental data published in the supplement of paper PMC7877785.
± gives the uncertainty stated by the source.

Test: self-splicing fitness, log relative to wild type (ln ratio); higher = more splicing; Tetrahymena group I intron in knt gene, E. coli kanamycin selection, DiMSum; sequences stand for … in CUCUCU…GGAGGGAAAAGUUAUCAGGCAUGCACCUGGUAGCUAGUCUUUAAACCAAUAGAUUGCAUCGGUUUAAAAGGCAAGACCGUCAAAUUGCGGGAAAGGGGUCAACAGCCGUUCAGUACCAAGUCUCAGGGGAAACUUUGAGAUGGCCUUGCAAAGGGUAUGGUAAUAAGCUGACGGACAUGGUCCUAACCACGCAGCCAAGUCCUAAGUCAACAGAUCUUCUGUUGAUAUGGAUGCAGUUCACAGACUAAAUGUCGGUCGGGGAAGAUGUAUUCUUCUCAUAAGAUAUAGUCGGACCUCUCCUUAAUGGGAGCUAGCGGAUGAAGUGAUGCAACACUGGAGCCGCUGGGAACUAAUUUGUAUGCGAAAGUAUAUUGAUUAGUUUUGGAGUACUCGUGGUCG
In short: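 Library with all eight P1ex-region intron nucleotides randomised, intron inside the knt kanamycin-resistance gene on pET-22b(+), in E. coli BL21(DE3). Cells grew overnight at 37°C or 30°C on LB agar with or without 25 μg/mL kanamycin (plus 100 μg/mL carbenicillin, 50 μM IPTG, 0.2% rhamnose), in six replicate transformations. Pooled colonies were amplicon-sequenced on Illumina HiSeq 2500. DiMSum fitness is the error-weighted combination of wild-type-normalised replicate fold changes, kanamycin versus none.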

| Sequence | self-splicing fitness (ln) (30 °C) | self-splicing fitness (ln) (37 °C) |
| --- | --- | --- |
| AAGGAGCAAUAUUACGUUCA | -1.44 ± 0.077 | -0.0364 ± 0.088 |
| AAGGAGCAAUAUUACGUUUG | -3.57 ± 0.42 | -2.82 ± 0.23 |
| AAGUAGCAAUAUUACGAAUG | -3.14 ± 0.24 | -1.72 ± 0.14 |
| AAGUAGCAAUAUUACGACUG | 0.323 ± 0.082 | -0.593 ± 0.11 |
| AAGUAGCAAUAUUACGAGCU | -0.679 ± 0.057 | -0.289 ± 0.087 |
| AAGUAGCAAUAUUACGAUAU | -1.21 ± 0.066 | -0.506 ± 0.084 |
| AAGUAGCAAUAUUACGCAUG | -2.05 ± 0.069 | -0.492 ± 0.074 |
| AAGUAGCAAUAUUACGCCUU | -1.39 ± 0.12 | -1.01 ± 0.19 |
| AAGUAGCAAUAUUACGCGGG | -2.89 ± 0.19 | -2.84 ± 0.2 |
| AAGUAGCAAUAUUACGCUAA | -1.81 ± 0.14 | -0.343 ± 0.15 |
| AAGUAGCAAUAUUACGCUCG | -0.592 ± 0.13 | -0.234 ± 0.17 |
| AAGUAGCAAUAUUACGCUUU | -3.18 ± 0.24 | -3.19 ± 0.47 |
| AAGUAGCAAUAUUACGGACG | -2.73 ± 0.18 | -1.74 ± 0.2 |
| AAGUAGCAAUAUUACGGAGG | -3.89 ± 0.33 | -2.5 ± 0.33 |
| AAGUAGCAAUAUUACGGCAG | -2.54 ± 0.18 | -1.77 ± 0.18 |
| AAGUAGCAAUAUUACGGCUG | -0.444 ± 0.083 | -0.731 ± 0.13 |
| AAGUAGCAAUAUUACGGCUU | -1.4 ± 0.12 | -0.634 ± 0.14 |
| AAGUAGCAAUAUUACGGUGG | -3.62 ± 0.22 | -2.85 ± 0.26 |
| AAGUAGCAAUAUUACGGUUC | -2.75 ± 0.19 | -2.08 ± 0.23 |

| Sequence | self-splicing fitness (ln) (30 °C) | self-splicing fitness (ln) (37 °C) |
| --- | --- | --- |
| AAGUAGCAAUAUUACGUCCA | -0.464 ± 0.18 | -0.521 ± 0.17 |
| AAGUAGCAAUAUUACGUCGC | -2.54 ± 0.25 | -1.8 ± 0.23 |
| AAGUAGCAAUAUUACGUGUA | -1.98 ± 0.13 | -1.41 ± 0.14 |
| AAGUAGCAAUAUUACGUGUU | -2.27 ± 0.093 | -1.2 ± 0.095 |
| AAGUAGCAAUAUUACGUUUA | -1.63 ± 0.13 | -0.835 ± 0.11 |
| AAUAAGCAAUAUUACGAAAA | -2.98 ± 0.28 | -1.76 ± 0.2 |
| AAUAAGCAAUAUUACGAAAU | -2.34 ± 0.14 | -1.4 ± 0.15 |
| AAUAAGCAAUAUUACGAAUU | -1.93 ± 0.1 | -1.58 ± 0.12 |
| AAUAAGCAAUAUUACGACAG | -1.64 ± 0.13 | -0.432 ± 0.14 |
| AAUAAGCAAUAUUACGACCC | -0.924 ± 0.12 | 0.479 ± 0.17 |
| AAUAAGCAAUAUUACGACUC | 0.0667 ± 0.14 | 0.341 ± 0.2 |
| AAUAAGCAAUAUUACGAGAU | -3.82 ± 0.2 | -2.24 ± 0.21 |
| AAUAAGCAAUAUUACGCACU | 0.285 ± 0.075 | -0.118 ± 0.082 |
| AAUAAGCAAUAUUACGCCGG | -1.87 ± 0.13 | -1.07 ± 0.18 |
| AAUAAGCAAUAUUACGCGCA | -0.438 ± 0.081 | -0.0417 ± 0.11 |
| AAUAAGCAAUAUUACGCGGC | -2.74 ± 0.24 | -2.03 ± 0.33 |
| AAUAAGCAAUAUUACGCUUC | -3.51 ± 0.23 | -2.59 ± 0.23 |
| AAUAAGCAAUAUUACGGCCC | -0.731 ± 0.17 | 0.533 ± 0.27 |
| AAUAAGCAAUAUUACGGCGU | 0.428 ± 0.082 | 0.242 ± 0.1 |
